Consider 1 protein from article PMC4160023 (Nature, 2013).

This series deals with the molecule itself. Description: negative-stain electron microscopy.

B1: hRegIIIα E114Q mutant (natural protein, human, UniProt Q06141 38-175, looked up)
chain: IRCPKGSKAYGSHCYALFLSPKSWTDADLACQKRPSGNLVSVLSGAEGSFVSSLVKSIGNSYSYVWIGLHDPTQGTQPNGEGWEWSSSDVMNYFAWERNPSTISSPGHCASLSRSTAFLRWKDYNCNVRLPYVCKFTD
On to B1, for which the binding result is on record as “binds”.
